Measurements as given in paper PMC9307952, “Lipoate protein ligase B primarily recognizes the C8-phosphopantetheine arm of its donor substrate and weakly binds the acyl carrier protein” (The Journal of Biological Chemistry, 2022).

B1: E. coli LipB (EcLipB) (Escherichia coli K-12; G72A/G73A) (protein)
chain: MYQDKILVRQLGLQPYEPISQAMHEFTDTRDDSTLDEIWLVEHYPVFTQGQAGKAEHILMPGDIPVIQSDRAAQVTYHGPGQQVMYVLLNLKRRKLGVRELVTLLEQTVVNTLAELGIEAHPRADAPGVYVGEKKICSLGLRIRRGCSFHGLALNVNMDLSPFLRINPCGYAGMEMAKISQWKPEATTNNIAPRLLENILALLNNPDFEYITA
B2: E. coli LipB (EcLipB) (Escherichia coli K-12; R71A) (protein)
chain: MYQDKILVRQLGLQPYEPISQAMHEFTDTRDDSTLDEIWLVEHYPVFTQGQAGKAEHILMPGDIPVIQSDAGGQVTYHGPGQQVMYVLLNLKRRKLGVRELVTLLEQTVVNTLAELGIEAHPRADAPGVYVGEKKICSLGLRIRRGCSFHGLALNVNMDLSPFLRINPCGYAGMEMAKISQWKPEATTNNIAPRLLENILALLNNPDFEYITA
B3: E. coli LipB (EcLipB) (Escherichia coli K-12; K135A) (protein)
chain: MYQDKILVRQLGLQPYEPISQAMHEFTDTRDDSTLDEIWLVEHYPVFTQGQAGKAEHILMPGDIPVIQSDRGGQVTYHGPGQQVMYVLLNLKRRKLGVRELVTLLEQTVVNTLAELGIEAHPRADAPGVYVGEKAICSLGLRIRRGCSFHGLALNVNMDLSPFLRINPCGYAGMEMAKISQWKPEATTNNIAPRLLENILALLNNPDFEYITA

Substrate: CCCCCCCC(=O)SCCNC(=O)CCNC(=O)[C@H](O)C(C)(C)COP(=O)(O)OP(=O)(O)OC[C@H]1O[C@@H](n2cnc3c(N)ncnc32)[C@H](O)[C@@H]1OP(=O)(O)O
Assay: purified protein
Settings: 5 μM LipB, 25 μM E. coli GcvH as acceptor, 0-160 μM C8-CoA, 50 mM Tris-HCl, 200 mM NaCl, pH 8.0, 30 °C

How did the Km turn out when B1 was run?
Its Km is 6.71 ± 0.98 µM.

What about the Vmax of the same protein?
The Vmax was 0.32 µmol/min.

And the kcat?
The kcat was 0.001 s⁻¹.

Which results are given for B2?
Km: 34.39 ± 8.8 µM; Vmax: 0.26 µmol/min; kcat: 0.000833 s⁻¹

With B3 as the protein, how does the Km read?
The Km was 42.37 ± 4.58 µM.

And the Vmax?
Its Vmax is 0.2 µmol/min.

What about the kcat of the same protein?
The kcat was 0.000667 s⁻¹.
